Values quoted from earlier work in PMC4153603.

Experiments:
Kv1.3 (Homo sapiens) = Kv1.3 (Homo sapiens) (UniProt P22001)
Kv1.1 (Homo sapiens) = Kv1.1 (Homo sapiens) (UniProt Q09470)
Sequence of UniProt Q09470 (Q09470 whole entry): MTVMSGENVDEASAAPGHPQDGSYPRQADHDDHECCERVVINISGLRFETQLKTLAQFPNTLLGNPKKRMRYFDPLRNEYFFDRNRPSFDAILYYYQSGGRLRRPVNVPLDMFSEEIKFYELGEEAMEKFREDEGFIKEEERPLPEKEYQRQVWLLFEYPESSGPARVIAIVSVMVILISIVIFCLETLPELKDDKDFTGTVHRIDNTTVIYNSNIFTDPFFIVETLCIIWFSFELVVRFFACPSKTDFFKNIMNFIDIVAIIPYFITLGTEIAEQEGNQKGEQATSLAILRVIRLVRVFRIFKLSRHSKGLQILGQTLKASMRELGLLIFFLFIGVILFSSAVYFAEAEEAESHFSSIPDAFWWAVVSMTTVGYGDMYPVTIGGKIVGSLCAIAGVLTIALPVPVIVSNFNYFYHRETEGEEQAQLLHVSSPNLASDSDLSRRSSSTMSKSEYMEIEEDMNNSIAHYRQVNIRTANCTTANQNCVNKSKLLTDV

Sequence of UniProt P22001 (P22001 whole entry): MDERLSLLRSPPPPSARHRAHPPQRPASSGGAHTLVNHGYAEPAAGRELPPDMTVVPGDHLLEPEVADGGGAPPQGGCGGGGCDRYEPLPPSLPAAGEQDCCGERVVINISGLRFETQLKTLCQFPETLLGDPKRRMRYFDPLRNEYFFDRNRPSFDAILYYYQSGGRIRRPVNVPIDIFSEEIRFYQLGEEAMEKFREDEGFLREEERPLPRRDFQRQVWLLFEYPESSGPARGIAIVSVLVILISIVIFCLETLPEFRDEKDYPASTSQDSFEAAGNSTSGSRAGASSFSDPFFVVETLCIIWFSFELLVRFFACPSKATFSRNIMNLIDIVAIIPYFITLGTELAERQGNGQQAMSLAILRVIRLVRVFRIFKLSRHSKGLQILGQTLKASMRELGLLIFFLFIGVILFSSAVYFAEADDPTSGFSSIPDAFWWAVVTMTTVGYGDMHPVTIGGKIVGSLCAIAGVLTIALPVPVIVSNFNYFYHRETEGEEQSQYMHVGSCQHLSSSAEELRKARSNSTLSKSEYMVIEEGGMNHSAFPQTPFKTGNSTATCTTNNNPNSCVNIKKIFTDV

**Q.** For ShK (from UniProt P29187), which Kd (Kv1.3 (Homo sapiens)) is on record?
**A.** The Kd was 10 pM.

**Q.** What about the Kd (Kv1.1 (Homo sapiens)) of the same substance?
**A.** Its Kd is 28 pM.
